Drawing on article PMC3677378, this text covers stoichiometry N (RF1 per S1 (band intensity)) for one substance.

In test [1] the target is E. coli ribosomal post-peptide-release complex (RC; 70S, tRNA^fMet and [Met, stop]-mRNA) (E. coli) (UniProt P0AG67). Description: co-sedimentation; RC or naked 70S (ribosomes 0.5 µM) with RF1 (2 µM) and RF3 (6 µM), 1xHEPES-polymix buffer, 37°C 10 min, no extra added GDP; ultracentrifugation on 30% sucrose cushion, SDS-PAGE, band intensities compared with ribosomal protein S1.

The target is the same in test [2]. Description: co-sedimentation; as a1 but with extra GDP titrated in, up to 200 μM extra GDP; ultracentrifugation on sucrose cushion, SDS-PAGE.

As to “release factor 1 (RF1), wild type (from UniProt P0A7I0 1-360) (natural protein)”, the stoichiometry N (RF1 per S1 (band intensity)) in test [1] and in test [2] was 1 in each case.
